Measurements from FireProtDB (doi:10.1074/jbc.m707838200).
Several values for one entry are separate records, joined by “and”; a condition that tells them apart may be missing. Identical values can stand only once.

B1: T171V, Q9EYL5 (parent)
chain: MTKKLLTLFIVSMLILTACGKKESATTSSKNGKPLVVVYGDYKCPYCKELDEKVMPKLRKNYIDNHKVEYQFVNLAFLGKDSIVGSRASHAVLMYAPKSFLDFQKQLFAAQQDENKEWLTKELLDKHIKQLHLDKETENKIIKDYKTKDSKSWKAAEKDKKIAKDNHIKTTPTAFINGEKVEDPYDYESYEKLLKDKIK

Variants of: B1
Settings: Staphylococcus aureus, pH 7, Thermal, CD, reversible: Yes, structure 3BCI, whole UniProt chain shown; for unfolding free energy: 25 °C, Hepes-NaOH 20 mM, NaCl 170 mM; for Tm / change of melting temperature, mutant - wild type (higher = more stable): Phosphate 100 mM

In the case of MTKKLLTLFIVSMLILTACGKKESATTSSKNGKPLVVVYGDYKCPYCKELDEKVMPKLRKNYIDNHKVEYQFVNLAFLGKDSIVGSRASHAVLMYAPKSFLDFQKQLFAAQQDENKEWLTKELLDKHIKQLHLDKETENKIIKDYKTKDSKSWKAAEKDKKIAKDNHIKTVPTAFINGEKVEDPYDYESYEKLLKDKIK [T171V], the unfolding free energy is reported as 34.3 kJ/mol and 35.2 kJ/mol, the Tm is reported as 71.8 °C and 73 °C and the “change of melting temperature, mutant - wild type (higher = more stable)” value is reported as -0.7 °C and 1.1 °C.

For MTKKLLTLFIVSMLILTACGKKESATTSSKNGKPLVVVYGDYKCPYCKELDEKVMPKLRKNYIDNHKVEYQFVNLAFLGKDSIVGSRASHAVLMYAPKSFLDFQKQLFAAQQDQNKEWLTKELLDKHIKQLHLDKETENKIIKDYKTKDSKSWKAAEKDKKIAKDNHIKTTPTAFINGEKVEDPYDYESYEKLLKDKIK [E114Q], the unfolding free energy was 25.6 kJ/mol, the Tm was 74.2 °C and the “change of melting temperature, mutant - wild type (higher = more stable)” value was 2.3 °C.
